{"source": "patent US9585933B2", "about": "“Therapeutic use of peptide inhibitors of NADPH oxidase; aerosolization as a delivery mechanism” (University of Pittsburgh—Of the Commonwealth System of …, priority 2011, dated 2017)", "key": {"[1]": {"target": "T1, Nox2 oxidase (COS-Nox2 lysate: Nox2, p22phox, p47phox, p67phox) (Homo sapiens, UniProt P14598)", "T1 construct": "host or cells: COS 7 cells, stably transfected; cell lysate used", "T1 sequence (P14598 1-390)": "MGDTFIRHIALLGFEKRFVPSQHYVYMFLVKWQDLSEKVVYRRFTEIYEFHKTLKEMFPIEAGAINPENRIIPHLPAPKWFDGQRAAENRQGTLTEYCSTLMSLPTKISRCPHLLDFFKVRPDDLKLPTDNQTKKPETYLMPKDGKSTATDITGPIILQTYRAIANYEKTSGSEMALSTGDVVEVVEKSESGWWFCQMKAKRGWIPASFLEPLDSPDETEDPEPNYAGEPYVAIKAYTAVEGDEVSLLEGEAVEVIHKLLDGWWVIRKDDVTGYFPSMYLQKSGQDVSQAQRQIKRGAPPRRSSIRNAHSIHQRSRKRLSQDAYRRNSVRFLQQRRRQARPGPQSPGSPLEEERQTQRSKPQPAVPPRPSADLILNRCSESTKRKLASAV", "assay": "Cell-free SOD-inhibitable cytochrome c reduction assay, O2- production in COS-Nox2 lysates", "type": "biochemical", "method": "(§1) To test this hypothesis, the inhibitory activity of Nox2ds was assessed in cell-free assays using reconstituted systems expressing either Nox1, 2 or 4 oxidase. Nox 2 oxidase was recapitulated by stably transfecting COS 7 cells with Nox2, p22phox, p47phox, and p67phox (aka COS-Nox2). Nox1 oxidase was obtained by transfecting COS 7 cells with Nox1, p22phox, NOXO1 and NOXA1 (COS-Nox1), and Nox 4 oxidase was regenerated by transfection of COS 7 cells with Nox4 and p22phox. […] Our new data support selectivity of Nox2ds peptide in differentiating the contribution of Nox2 vs. Nox1 and Nox4 NADPH oxidase and its potential clinical use in ameliorating cardiopulmonary diseases.\nCOS-Nox2: COS 7 cells transfected with p22^phox, Nox2, p47^phox and p67^phox (M. Dinauer, Indiana University). (Price M O, McPhail L C, Lambeth J D, Han C H, Knaus U G, Dinauer M C. Blood. 2002 Apr. 15; 99(8):2653-61.)\nSuperoxide (O2^−) production was measured in COS-Nox1 and COS-Nox2 lysates by determining the rate of O2^− dismutase (SOD) inhibitable cytochrome c reduction and by electron paramagnetic resonance (EPR).\nCOS-Nox2, COS-Nox1/NOXO1/NOXA1, and COS-22 cells were suspended to a concentration of 5×10^7 cells/ml in ice-cold disruption buffer (8 mM potassium, sodium phosphate buffer, pH 7.0, 131 mM NaCl, 340 mM sucrose, 2 mM NaN3, 5 mM MgCl2, 1 mM EGTA, 1 mM EDTA, and protease inhibitor cocktail). The cells were lysed by five freeze/thaw cycles and passed through a 30-gauge needle five times to further lyse the cells. Cell disruption was confirmed by phase-contrast microscopy. The cell lysate was centrifuged at 1000 g for 10 min at 4° C. to remove unbroken cells, nuclei, and debris. Throughout all these procedures, extreme care was taken to maintain the lysate at a temperature close to 0° C. Superoxide production was calculated from the initial linear rate (over 10 min) of SOD-inhibitable cytochrome c reduction quantified at 550 nm using the extinction coefficient of 21.1 mM-1 cm-1 (Biotek Synergy 4 hybrid multimode microplate reader). The oxidase assay buffer consisted of 65 mM sodium phosphate buffer (pH 7.0), 1 mM EGTA, 10 μM FAD, 1 mM MgCl2, 2 mM NaN3, and 0.2 mM cytochrome c. The components of the cell-free system were added in the following order: oxidase assay buffer, cell lysate (5×10^5 cell equivalents/well), and Nox2ds/Scrmb Nox2ds peptides at a final concentration of 0.1, 0.3, 1.0, 3.0, and 10 μM. The plates were placed on an orbital shaker to mix contents for 5 min at 120 movements/min at room temperature. LIDS, an established lipid activator of phagocyte cell-free systems, was added at a concentration of 130 μM, and O2^− production was initiated by the addition of 180 μM NADPH. The concentration of Nox2ds peptide that caused 50% inhibition of O2^− production (IC50) in COS-Nox2 cell lysates was calculated by Prism 5 (GraphPad Software, La Jolla, Calif., USA).\nCytochrome C Assay. FIG. 3A. Rate of O2^− production in COS-Nox2 lysates pretreated with Nox2ds or scrambled control (Scrmb Nox2ds). O2^− production was initiated by the addition of NADPH and measured by the SOD-inhibitable cytochrome c reduction for 10 min."}, "[2]": {"target": "T2, Nox2 oxidase (COS-Nox2 lysate) (Homo sapiens, UniProt P14598)", "T2 construct": "host or cells: COS 7 cells, stably transfected; cell lysate used", "T2 sequence (P14598 1-390)": "T1 sequence (P14598 1-390)", "assay": "EPR with spin probe CMH, O2- production in COS-Nox2 lysates", "type": "biochemical", "settings": "10 μM peptide, vehicle 36330±2658", "method": "as §1\nThe spin probe 1-hydroxy-3-methoxycarbonyl-2,2,5,5-tetramethylpyrrolidine hydrochloride (CMH; Alexis Corp., San Diego, Calif., USA) was used to examine O2^− production in COS-Nox2 cell lysates using a Bruker eScan table-top EPR spectrometer (Bruker Biospin, USA). Superoxide production was measured in oxidase assay buffer (65 mM sodium phosphate buffer, pH 7.0, 1 mM EGTA, 10 μM FAD, 1 mM MgCl2, 2 mM NaN3) supplemented with 50 μM CMH. […] Analyses of the EPR spectra peak heights were used to quantify the amount of O2^− produced by the lysates and were compared with buffer-only control spectra or spectra in the presence of 10 μM Nox2ds, 10 μM Scrmb Nox2ds, or 150 U/ml SOD. […]"}}}
{"sequence": "CLRVTRQSR (Scrambled Nox2ds) [scrmb Nox2ds, reference compound]", "values": [{"measurement": "rate of O2- generation, SOD-inhibitable reduction of cytochrome c", "setting": "[1]; 10 μM peptide, 0 μM control 1.33±0.1", "result": "1.44±0.2 nmol O2^−/min/10^7 lysate-cell equivalents"}, {"measurement": "inhibition of Nox2-oxidase O2- production (in words)", "setting": "[1]; cytochrome c assay", "result": "did not inhibit"}, {"measurement": "CM radical intensity (EPR, O2- production)", "setting": "[2]", "result": "34142±6075"}]}
